The values that follow come from PMC4461266 (PLoS Pathogens, 2015).

The experiment deals with PR8-PB1-GST (influenza A virus A/Puerto Rico/8/1934 …, UniProt P03431 1-757). Description: pull-down. Conditions: both partners purified.

B1: TRIM32-HIS (natural protein, human, UniProt Q13049 1-653, looked up)
chain: MAAAAASHLNLDALREVLECPICMESFTEEQLRPKLLHCGHTICRQCLEKLLASSINGVRCPFCSKITRITSLTQLTDNLTVLKIIDTAGLSEAVGLLMCRSCGRRLPRQFCRSCGLVLCEPCREADHQPPGHCTLPVKEAAEERRRDFGEKLTRLRELMGELQRRKAALEGVSKDLQARYKAVLQEYGHEERRVQDELARSRKFFTGSLAEVEKSNSQVVEEQSYLLNIAEVQAVSRCDYFLAKIKQADVALLEETADEEEPELTASLPRELTLQDVELLKVGHVGPLQIGQAVKKPRTVNVEDSWAMEATASAASTSVTFREMDMSPEEVVASPRASPAKQRGPEAASNIQQCLFLKKMGAKGSTPGMFNLPVSLYVTSQGEVLVADRGNYRIQVFTRKGFLKEIRRSPSGIDSFVLSFLGADLPNLTPLSVAMNCQGLIGVTDSYDNSLKVYTLDGHCVACHRSQLSKPWGITALPSGQFVVTDVEGGKLWCFTVDRGSGVVKYSCLCSAVRPKFVTCDAEGTVYFTQGLGLNLENRQNEHHLEGGFSIGSVGPDGQLGRQISHFFSENEDFRCIAGMCVDARGDLIVADSSRKEILHFPKGGGYSVLIREGLTCPVGIALTPKGQLLVLDCWDHCIKIYSYHLRRYSTP
notes: also called HIS-TRIM32; HIS-tagged TRIM32
For B1, the binding result is “binds”.
